For the data set, the target named is thiolated streptavidin (ProteinMods) (UniProt P22629).
UniProt P22629, sequence (P22629 whole entry, looked up): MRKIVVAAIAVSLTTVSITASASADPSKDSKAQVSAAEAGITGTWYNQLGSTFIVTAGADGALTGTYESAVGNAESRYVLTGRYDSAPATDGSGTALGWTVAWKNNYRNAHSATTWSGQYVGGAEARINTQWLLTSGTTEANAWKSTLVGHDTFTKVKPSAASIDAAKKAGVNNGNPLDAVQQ

For “Gen II Φ29 DNA polymerase (D12A/D66A, biotinylated Avitag at the N terminus and second Avitag between E279 and D280)”, the “highest peak of the single-molecule conductance distribution (STM, 4.5 nm gap)” value was “The 3 nS peak observed in FIG. 14B is now absent”.

For the origin of these results see US20220316002.
